Experimental data as given in patent US20130156786A1.

Columns and labels:
[1] = target: human α2β1 integrin on human platelets (human) (UniProt P17301); experiment: FACS of human blood platelets, secondary antibody only, without primary antibody (negative control)
[2] = target: macaca fascicularis α2β1 integrin on platelets (macaca fascicularis); experiment: FACS of macaca blood platelets, secondary antibody only, without primary antibody (negative control)

human α2β1 integrin on human platelets (human), sequence (P17301 30-1181 limits assumed, chain 1 of 2): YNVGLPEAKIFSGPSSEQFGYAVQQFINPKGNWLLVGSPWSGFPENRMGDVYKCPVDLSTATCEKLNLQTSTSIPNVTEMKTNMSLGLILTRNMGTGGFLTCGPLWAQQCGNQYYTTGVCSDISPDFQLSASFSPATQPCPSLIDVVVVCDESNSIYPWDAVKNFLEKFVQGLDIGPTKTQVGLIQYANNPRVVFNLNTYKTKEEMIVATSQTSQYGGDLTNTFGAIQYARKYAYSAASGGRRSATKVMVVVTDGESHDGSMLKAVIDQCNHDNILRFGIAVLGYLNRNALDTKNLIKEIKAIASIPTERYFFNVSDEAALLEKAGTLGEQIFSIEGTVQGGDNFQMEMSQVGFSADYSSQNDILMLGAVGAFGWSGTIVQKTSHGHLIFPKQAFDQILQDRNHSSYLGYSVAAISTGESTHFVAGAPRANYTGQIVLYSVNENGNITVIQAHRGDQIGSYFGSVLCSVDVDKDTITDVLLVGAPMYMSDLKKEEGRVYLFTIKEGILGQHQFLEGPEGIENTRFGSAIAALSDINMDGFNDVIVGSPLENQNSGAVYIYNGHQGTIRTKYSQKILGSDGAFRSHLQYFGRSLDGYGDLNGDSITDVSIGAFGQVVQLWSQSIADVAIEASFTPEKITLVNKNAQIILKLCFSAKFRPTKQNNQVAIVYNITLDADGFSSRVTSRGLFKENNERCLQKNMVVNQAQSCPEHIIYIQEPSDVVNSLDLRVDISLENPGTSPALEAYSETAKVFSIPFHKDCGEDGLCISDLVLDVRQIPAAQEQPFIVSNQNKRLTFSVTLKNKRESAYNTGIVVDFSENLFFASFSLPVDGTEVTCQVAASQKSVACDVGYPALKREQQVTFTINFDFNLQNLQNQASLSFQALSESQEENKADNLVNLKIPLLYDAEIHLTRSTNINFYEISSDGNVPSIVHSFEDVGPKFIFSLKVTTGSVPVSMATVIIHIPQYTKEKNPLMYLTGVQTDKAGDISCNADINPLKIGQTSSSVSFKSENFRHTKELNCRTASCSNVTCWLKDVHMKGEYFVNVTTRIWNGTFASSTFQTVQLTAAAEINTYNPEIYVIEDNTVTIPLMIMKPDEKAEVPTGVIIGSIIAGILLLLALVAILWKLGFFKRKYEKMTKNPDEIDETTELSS
human α2β1 integrin on human platelets (human), sequence (chain, as listed by the source limits assumed, chain 2 of 2): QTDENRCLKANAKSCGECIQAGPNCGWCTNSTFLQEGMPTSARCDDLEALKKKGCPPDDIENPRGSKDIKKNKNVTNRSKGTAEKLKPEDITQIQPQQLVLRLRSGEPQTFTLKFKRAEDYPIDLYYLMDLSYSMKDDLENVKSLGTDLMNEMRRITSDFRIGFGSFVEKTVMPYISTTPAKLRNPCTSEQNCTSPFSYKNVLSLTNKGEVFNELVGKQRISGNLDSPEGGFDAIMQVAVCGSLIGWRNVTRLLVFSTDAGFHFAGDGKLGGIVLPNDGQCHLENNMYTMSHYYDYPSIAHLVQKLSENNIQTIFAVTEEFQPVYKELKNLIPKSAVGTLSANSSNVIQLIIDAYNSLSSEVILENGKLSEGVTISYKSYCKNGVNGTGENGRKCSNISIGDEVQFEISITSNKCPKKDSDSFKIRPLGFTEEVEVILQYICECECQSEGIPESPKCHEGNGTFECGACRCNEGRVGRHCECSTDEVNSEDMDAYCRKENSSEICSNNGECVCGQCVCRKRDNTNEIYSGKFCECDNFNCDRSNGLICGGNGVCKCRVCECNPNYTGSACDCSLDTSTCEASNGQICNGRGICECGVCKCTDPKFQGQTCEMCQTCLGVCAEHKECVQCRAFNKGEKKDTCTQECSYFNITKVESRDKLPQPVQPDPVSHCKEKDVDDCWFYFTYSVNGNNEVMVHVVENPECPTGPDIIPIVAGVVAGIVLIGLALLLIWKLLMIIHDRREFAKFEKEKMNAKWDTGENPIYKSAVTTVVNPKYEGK

anti mouse-IgG-PE (antibody) was tested, and the % positives [1] was 0.5% and the % positives [2] was 0.6%.
